Here are results for one protein from paper PMC5225439, “Nucleoplasmin-like domain of FKBP39 from Drosophila melanogaster forms a tetramer with partly disordered tentacle-like C-terminal segments” (Scientific Reports, 2017).

Series [1] deals with the molecule itself. As to the kind of experiment: SEC-MALS; 100 μl of 1 mg/ml FKBP39 on Superdex 200 Increase 10/300 in buffer C (50 mM Na2HPO4, 150 mM NaCl, pH 7.0), 0.5 ml/min. (SEC sorts molecules by how far they enter the pores of the column.)
Series [2] deals with the molecule itself. As to the kind of experiment: AUC; sedimentation velocity, 20 °C, buffer C (50 mM Na2HPO4, 150 mM NaCl, pH 7.0), 0.2 and 0.5 mg/ml protein, 40,000 rpm, absorbance at 280 nm, continuous c(s) distribution in SEDFIT.

B1: 39-kDa FK506-binding protein (FKBP39) from Drosophila melanogaster, full-length, with C-terminal 8x His-tag (natural protein, UniProt P54397 1-357, looked up)
chain: MSMFWGLNMKPERKYSQTIIKSFHISGVALDKGQEAKLYLAAEKQEYIVATVTKAIPQVALDLNFSKGDRIMFYTAGDASVSLLGYLHDIDSEDDEDDDQMTIENLLNSKAIKNSKKSEDDEDENESGEEDEEDTDDDSQIIEEYESFLENGEEEDDDDVDEDNEESGEEDEQDSDDSEAEEEQPKAKVAKLSPGASAKKSGKEQNGVAKKEEAKQQQKKKEKPEAKKEQPKAKEPAKQQPASKDPRTITGGVKIVDQVVGKGEEAKQGKRVSVYYIGRLQSNNKTFDSLLKGKPFKFALGGGEVIKGWDVGVAGMKVGGKRVITCPPHMAYGARGAPPKIGPNSTLVFEVELKAVH
notes: N-terminal NPL 1-86, central charged region 87-256, C-terminal FKBD 257-357; Cloned BamHI/HindIII into the modified vector pQE80L-XH; The forward primer puts TCG (Ser) before the FKBP39 ATG, so a few vector-derived residues precede the natural start; also called full-length FKBP39; recombinant FKBP39; source: E. coli BL21(DE3)pLysS, purified (Co2+-TALON resin, Superdex 200 SEC)
Turning to B1, the figures for the “stoichiometry N” value in series [1] and in series [2] were 2 and 4, respectively.
